Reference: patent publication US20110274691A1 (Amgen, published 2011)

T1: ferroportin fragment YHGWVLTSCY (amino acids 124-133 of SEQ ID NO: 16) (human)
T1 construct: PepSpot array of overlapping 10-mers on cellulose membrane
T1 peptide: YHGWVLTSCY

T2: ferroportin fragment RDGWVSYYNQ (amino acids 296-305 of SEQ ID NO: 16) (human)
T2 construct: PepSpot array of overlapping 10-mers on cellulose membrane
T2 peptide: RDGWVSYYNQ

T3: ferroportin-V5 (human, UniProt Q9NP59 1-571)
T3 sequence: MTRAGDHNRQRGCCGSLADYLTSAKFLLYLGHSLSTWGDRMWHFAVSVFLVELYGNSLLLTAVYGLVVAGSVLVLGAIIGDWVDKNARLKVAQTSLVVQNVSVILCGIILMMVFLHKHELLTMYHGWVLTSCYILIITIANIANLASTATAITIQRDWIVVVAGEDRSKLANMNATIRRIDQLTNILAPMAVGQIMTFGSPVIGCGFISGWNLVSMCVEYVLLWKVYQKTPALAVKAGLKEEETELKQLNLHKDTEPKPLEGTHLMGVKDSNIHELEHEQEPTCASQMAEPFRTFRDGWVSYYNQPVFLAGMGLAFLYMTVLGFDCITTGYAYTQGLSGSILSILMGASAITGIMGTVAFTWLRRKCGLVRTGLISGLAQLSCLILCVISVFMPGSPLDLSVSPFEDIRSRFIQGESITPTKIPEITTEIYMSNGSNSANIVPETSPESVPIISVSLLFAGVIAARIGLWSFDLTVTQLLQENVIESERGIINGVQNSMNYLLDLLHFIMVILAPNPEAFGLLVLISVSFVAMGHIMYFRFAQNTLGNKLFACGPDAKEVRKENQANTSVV

T4: human ferroportin (human, UniProt Q9NP59 1-571)
T4 sequence: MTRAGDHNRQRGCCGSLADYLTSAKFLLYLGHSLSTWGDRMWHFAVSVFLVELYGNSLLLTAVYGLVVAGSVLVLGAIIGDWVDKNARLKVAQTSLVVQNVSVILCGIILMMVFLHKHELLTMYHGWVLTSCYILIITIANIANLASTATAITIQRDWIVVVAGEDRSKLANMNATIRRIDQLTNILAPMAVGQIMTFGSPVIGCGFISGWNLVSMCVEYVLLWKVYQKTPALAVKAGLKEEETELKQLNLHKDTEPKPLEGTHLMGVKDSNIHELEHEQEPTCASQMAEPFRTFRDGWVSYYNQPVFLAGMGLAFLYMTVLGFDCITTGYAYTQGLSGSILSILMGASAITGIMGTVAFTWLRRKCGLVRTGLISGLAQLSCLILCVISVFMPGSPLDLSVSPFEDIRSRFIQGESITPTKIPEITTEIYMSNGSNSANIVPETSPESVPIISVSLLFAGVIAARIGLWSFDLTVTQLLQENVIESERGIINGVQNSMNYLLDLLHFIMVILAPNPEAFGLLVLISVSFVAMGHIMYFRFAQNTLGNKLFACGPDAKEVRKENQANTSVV

T5: ferroportin fragment SITPTKIPEI (amino acids 417-426 of SEQ ID NO: 16) (human)
T5 construct: PepSpot array of overlapping 10-mers on cellulose membrane
T5 peptide: SITPTKIPEI

T6: ferroportin fragment ITTEIYMSNGSNS (amino acids 426-438 of SEQ ID NO: 16) (human)
T6 construct: Stretch covered by several overlapping 10-mers of the PepSpot array; 13 residues as printed
T6 peptide: ITTEIYMSNGSNS

T7: ferroportin peptide Fc conjugate 2 (Peptide 2: ITIQRDWIVVVAGEDRSKLANMNATIRRIDQL, amino acids 152-183 of SEQ … (human))
T7 construct: not shown: Fc moiety
T7 chain: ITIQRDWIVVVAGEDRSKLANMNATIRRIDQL

T8: ferroportin peptide Fc conjugate 5 (Peptide 5: AQNTLGNKLFACGPDAKEVRKENQANTSVV, amino acids 542-571 of SEQ ID … (human))
T8 construct: not shown: Fc moiety
T8 chain: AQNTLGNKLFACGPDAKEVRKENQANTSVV

T9: ferroportin peptide sequence ANIVPETSPES (residues 439-449 of SEQ ID NO: 16) (human)
T9 peptide: ANIVPETSPES

T10: ferroportin fragment TEIYMSNGSNSA (amino acids 428-439 of SEQ ID NO: 16) (human)
T10 construct: Stretch covered by several overlapping 10-mers of the PepSpot array; 12 residues as printed
T10 peptide: TEIYMSNGSNSA

T11: ferroportin fragment AFLYMTVLGF (amino acids 315-324 of SEQ ID NO: 16) (human)
T11 construct: PepSpot array of overlapping 10-mers on cellulose membrane
T11 peptide: AFLYMTVLGF


Experiments:
[1] = biological target: T1, ferroportin fragment YHGWVLTSCY (amino …); assay: PepSpot peptide array, 1 ug/mL antibody
Description: (§1) The PepSpot technique (Heiskanen et al., Virology, 262:321-332, 1999) was used to identify the binding epitopes on ferroportin for human antibodies 37A2, 37B9, 37C8, 37G8, 38A4, 38C8, 38D2, 38E3 and 38G6. Briefly, an array of overlapping 10-mer peptides was synthesized on a cellulose membrane by a solid phase peptide synthesis spotting method. These peptide sequences were derived from amino acids 1-571 of SEQ ID NO: 16. The array was then soaked in 0.05% Tween-20/PBS (PBS-T), blocked with 5% BSA in PBS-T for 3 hours at room temperature and subsequently washed three times with PBS-T. The prepared array was then incubated for 90 minutes at room temperature with 1 μg/mL solution of antibodies 37A2, 37B9, 37C8, 37G8, 38A4, 38C8, 38D2, 38E3 or 38G6 in 5% nonfat dry milk. After binding, the membrane was washed three times with PBS-T and subsequently incubated for 1 hour at room temperature with a goat anti-human light chain antibody conjugated to horseradish peroxidase diluted 1:50,000 in 5% nonfat dry milk. The membrane was then washed three times with PBS-T and any binding was determined using chemiluminescence detection on X-ray film.
(§2) Antibodies 37A2, 37B9, 37C8, 37G8, 38A4, 38C8, 38D2, 38E3 and 38G6 bound to epitopes within, overlapping or near loops 1, 2, 3 and 4 of the ferroportin sequence set forth in FIG. 1A.

[2] = biological target: T2, ferroportin fragment RDGWVSYYNQ (amino …); assay: PepSpot peptide array, 1 ug/mL antibody
Description: as §1, §2

ferroportin-V5 = biological target: T3, ferroportin-V5; assay: cell-based or functional assay
human ferroportin = biological target: T4, human ferroportin; assay: cell-based or functional assay
[3] = biological target: T5, ferroportin fragment SITPTKIPEI (amino …); assay: PepSpot peptide array, 1 ug/mL antibody
Description: as §1, §2

[4] = biological target: T6, ferroportin fragment ITTEIYMSNGSNS …; assay: PepSpot peptide array, 1 ug/mL antibody
Description: as §1, §2

[5] = biological target: T7, ferroportin peptide Fc conjugate 2 …; assay: Western blot of peptide-Fc conjugates
Experimental: (§3) 31A5 was then tested by Western analysis for its ability to recognize a panel of ferroportin peptide-Fc conjugates, where the peptide moiety was derived from different, non-overlapping regions of the ferroportin sequence. 500 ng of ferroportin peptide Fc conjugates 1-5 (Peptide 1: […], amino acids 75-96 of SEQ ID NO: 16; Peptide 2: […], amino acids 152-183 of SEQ ID NO: 16; Peptide 3: […], amino acids 330-338 of SEQ ID NO: 16; Peptide 4: […], amino acids 393-446 of SEQ ID NO: 16; and Peptide 5: […], amino acids: 542-571 of SEQ ID NO: 16) were run on a NuPAGE 4-12% gel, transferred to a nitrocellulose membrane and probed using […] 31A5 followed by an anti-mouse secondary antibody.

[6] = biological target: T8, ferroportin peptide Fc conjugate 5 …; assay: Western blot of peptide-Fc conjugates
Experimental: as §3

[7] = biological target: T9, ferroportin peptide sequence …; assay: binding to 7-10 amino acid peptides immobilized on cellulose membrane
Description: None of the other ferroportin-binding antibodies bound appreciably to this peptide. The location of the 31A5 epitope was further narrowed by detecting binding to ferroportin peptides ranging in length from 7 to 10 amino acids immobilized on a cellulose membrane. […] Cysteine residue 326 of SEQ ID NO: 16 is located in a different extracellular loop from the loop containing the 31A5 epitope (i.e., loop 3 of FIG. 1A).

[8] = biological target: T10, ferroportin fragment TEIYMSNGSNSA …; assay: PepSpot peptide array, 1 ug/mL antibody
Description: as §1, §2

[9] = biological target: T11, ferroportin fragment AFLYMTVLGF (amino …); assay: PepSpot peptide array, 1 ug/mL antibody
Description: as §1, §2

Binder	preserved ferroportin activity (ferroportin-V5 fluorescence after 37 nM hepcidin), IC50 (ferroportin-V5)	decreased intracellular concentration of iron (IRE beta-lactamase reporter, 293/Fpn/BLA cells, 36 nM hepcidin), IC50 (human ferroportin)	binding result [9]	further results
antibody 38D2 (antibody, V domains shown) VH: QVQLVQSGAEVKKPGASVKVSCKASGYTLTGYYLHWVRQAPGQELEWMGWINPFTGATDYAQKFQGRVTMTRDTSINTAHMELSRLRSDDTAVYYCARDPSLQNSYHYYVMDVWGQGTTVTVSS VL: not shown	5.4 nM	10 nM		binding result [1]: binds; binding result [2]: binds
antibody 37A2 (antibody, V domains shown) VH: QVQLVESGGGVVQPGRSLRLSCAASGFTFSGYGMHWVRQAPGRGLEWVAVIWPDGTNKYYADSVKGRFTISRDNSKNKLYLQMNSLRAEDTAVYYCARGGATAVFGMNVWGQGTTVTVSS VL: SYELTQPPSVSVSPGQTARITCSGDELPKQYAYWYQQKAGQAPVMVIHKDSERPSGIPERFSGSSAGTIVTLTISGVQAEDEADYYCQSPDSRRTVIFGGGTKLTVL	2.5 nM	4.5 nM		binding result [3]: binds
antibody 38A4 (antibody, V domains shown) VH: EVQLLESGGGLVQPGGSLRLSCAASGFTFSSFAMTWVRQAPGKGLEWVSAIGGSGRNTYYADSVKGRFTISRDNSKNTLYLQMSSLRAEDTAVYYCAKEGAMARPPRGLDVWGQGTTVTVSS VL: not shown	2.8 nM	0.4 nM		binding result [4]: binds
anti-ferroportin antibody 31A5 (antibody, V domains shown, the ends of the mature chains (466, 239) are printed in CLM-00028; also called monoclonal 31A5; mouse anti-human ferroportin antibody) VH: QVQLQQSGAELARPGASVKLSCKASGYTFTSYGISWVKQRTGQGLEWIGEIYPRSGNAYYNEKFKVKATLTIDKSSSTAYMELRSLTSEDSAVYFCGGNYYWGQGTTLTVSS VL: not shown		30 nM		binding result [5]: no binding; binding result [6]: no binding; binding result [7]: binds
antibody 38G6 (antibody, V domains shown) VH: EVQVVESGGGLVQPGGSLRLSCAASGFTFSSYSVNWVRQAPGKGLEWVSYISGSSSTVHYADSVKGRFTISRDTAKNSVYLQLNSLRDEDTALYYCARWGTRQGHYFGMDVWGQGTTVTVSS VL: QPVLTQPPSASASLGASVTLTCTLSSGYNNYKVDWFQQRPGRGPRFVMRVGTGGIVGSKGDGIPDRFSVLGSGLNRYLTIKNIQEEDESDYHCGADHASGNNFVYVFGTGTKVTVL	1.9 nM	4.3 nM		binding result [8]: binds
antibody 38E3 (antibody, V domains shown) VH: QVQLVQSGAEVKKPGSSVKVSCKASGYTLTGYYMHWVRQAPGQGLEWMGWINPHTGGKNYAQKFQGRVTLTRDTSISTAYMELNSLRSDDTAVYYCARDPSLSVTGPSFYYYGLDVWGQGTTVTVSS VL: not shown		15 nM	binds	
antibody 37C8 (antibody, V domains shown) VH: QVQLVQSGAEVKKPGSSVKVSCKASGYTLTGYYMHWVRQAPGQGLEWMGWINPHTGGKNYAQKFQGRVTLTRDTSINTAYMELNTLRSDDTAVYYCARDPSIAVAGPSFYYYGLDVWGQGTTVTVSS VL: not shown	0.2 nM	0.8 nM	binds	
antibody 37G8 (antibody, V domains shown) VH: QVQLVQSGAEVKKPGSSVKVSCKASGYTLTGYYMHWVRQAPGQGLEWMGWINPHTGGKNYAQKFQGRVTLTRDTSINTAYMELNTLRSDDTAVYYCARDPSLVVTGPSFYYYGLDVWGQGTTVTVSS VL: DIVMTQTPLSSPVTHGQPASISCRSSQSLVHSDGNTYLSWLQQRPGQPPRLLIYKISNRLSGVPDRFSGSGTGTDFTLKISRVEAEDVGVYVCMQATQFPWTFGQGTKVEIK	0.8 nM	1.6 nM	binds	
antibody 37B9 (antibody, V domains shown) VH: QVQLVQSGAEVKKPGSSVKVSCKASGYTLTGYYMHWVRQAPGQGLEWMGWINPHTGGKNYAQRFQGRVTLTRDTSVNTAYMELNTLRSDDTAVYYCARDPSLVVTGPSFYYYGLDVWGQGTTVTVSS VL: not shown	0.2 nM	3.6 nM	binds	
antibody 38C8 (antibody, V domains shown) VH: QVQLVQSGAEVKKPGSSVKVSCKASGYTLTGYYMHWVRQAPGQGLEWMGWINPHTGGKNYGQKFQGRVTLTRDTSINTAYMELNSLRSDDTAVYYCARDPSISVAGPSFYYFGLDVWGQGTTVTVSS VL: not shown	0.3 nM	0.9 nM	binds	
